According to the Human Domainome abundance scans (Beltran et al. 2025):
± gives the uncertainty stated by the source.

B1: RUN and FYVE domain-containing protein 1, residues 639 to 698; numbered along this chain, Q96T51 (parent)
chain: WLKDDEATHCRQCEKEFSISRRKHHCRNCGHIFCNTCSSNELALPSYPKPVRVCDSCHTL

Variants of: B1
Experiment: abundance fitness (aPCA) (normalised: wild type 0, dead -1); higher = more abundant; growth selection in yeast, the domain comes from the species named
Conditions: Homo sapiens

Row | Variant | abundance fitness
1 | R22T | -0.066 ± 0.045
2 | T36L | 0.3 ± 0.033
3 | H58R | -0.147 ± 0.037
4 | S20T | 0.069 ± 0.041
5 | T59P | -0.281 ± 0.068
6 | S20Y | -0.195 ± 0.068
7 | D4V | -0.351 ± 0.052
8 | K49A | -0.327 ± 0.073
9 | C54R | -0.278 ± 0.48
10 | Q12H | -0.27 ± 0.072
11 | E6D | -0.078 ± 0.072
12 | I32L | -0.056 ± 0.036
13 | V51M | -0.244 ± 0.091
14 | V51E | -0.301 ± 0.095
15 | C34A | -0.659 ± 0.065
16 | P50S | -0.253 ± 0.053
17 | S38R | -0.122 ± 0.088
18 | R27F | 0.176 ± 0.061
19 | E6A | -0.085 ± 0.043
20 | S38W | -0.282 ± 0.1
21 | S39E | 0.079 ± 0.055
22 | S46K | 0.181 ± 0.058
23 | E41W | -0.384 ± 0.074
24 | S46M | 0.086 ± 0.093

Row | Variant | abundance fitness
25 | A43Y | -0.366 ± 0.069
26 | L2Y | 0.058 ± 0.057
27 | L42W | -0.014 ± 0.044
28 | S20E | 0.197 ± 0.037
29 | P45A | -0.277 ± 0.1
30 | H58P | -0.667 ± 0.061
31 | G30E | -0.239 ± 0.067
32 | I19V | -0.102 ± 0.045
33 | L2G | -0.074 ± 0.12
34 | S46E | 0.402 ± 0.084
35 | N28A | -0.046 ± 0.037
36 | S46V | -0.265 ± 0.055
37 | T36D | 0.401 ± 0.048
38 | I32V | 0.04 ± 0.045
39 | S38A | 0.124 ± 0.077
40 | V51P | -0.403 ± 0.14
41 | H24M | -0.148 ± 0.047
42 | R27K | 0.04 ± 0.082
43 | C10M | -1.02 ± 0.16
44 | N28L | -0.342 ± 0.043
45 | T59M | 0.019 ± 0.049
46 | N28T | -0.306 ± 0.059
47 | K49H | -0.11 ± 0.28
48 | T8C | -0.325 ± 0.063

Row | Variant | abundance fitness
49 | K15S | -0.098 ± 0.034
50 | C29M | -0.906 ± 0.094
51 | E6C | 0.009 ± 0.046
52 | E6V | -0.254 ± 0.046
53 | S18L | -0.423 ± 0.042
54 | H24T | -0.146 ± 0.051
55 | R11S | 0.203 ± 0.04
56 | C34P | -0.633 ± 0.079
57 | D5T | -0.178 ± 0.058
58 | N28D | -0.19 ± 0.08
59 | S39T | 0.084 ± 0.039
60 | N40W | -0.85 ± 0.078
61 | H58A | -0.1 ± 0.043
62 | H25W | 0.128 ± 0.053
63 | P48A | -0.167 ± 0.047
64 | Q12D | -0.051 ± 0.053
65 | N35D | 0.324 ± 0.067
66 | S56P | 0.24 ± 0.043
67 | P50C | -0.128 ± 0.08
68 | S56C | 0.03 ± 0.074
69 | C37Q | -0.557 ± 0.06
70 | E14K | -0.439 ± 0.065
71 | C10H | -0.665 ± 0.27
72 | L44C | -0.389 ± 0.099

Row | Variant | abundance fitness
73 | S39I | -0.229 ± 0.067
74 | F17K | -0.676 ± 0.087
75 | L42I | 0.214 ± 0.08
76 | S38F | -0.594 ± 0.07
77 | E16Q | -0.329 ± 0.077
78 | I32A | -0.1 ± 0.14
79 | F33K | -0.602 ± 0.069
80 | D4H | -0.192 ± 0.097
81 | C37P | -0.537 ± 0.068
82 | P45Q | 0.162 ± 0.047
83 | Y47I | -0.197 ± 0.07
84 | F17P | -0.624 ± 0.082
85 | H24E | 0.051 ± 0.047
86 | I32F | 0.042 ± 0.067
87 | K3M | -0.431 ± 0.073
88 | C29N | -0.942 ± 0.16
89 | K49F | -0.342 ± 0.066
90 | Y47K | -0.262 ± 0.074
91 | P45D | -0.035 ± 0.36
92 | C37G | -0.471 ± 0.047
93 | N35C | 0.237 ± 0.051
94 | P48Q | -0.051 ± 0.054
95 | C34I | -0.71 ± 0.096
96 | S38M | -0.425 ± 0.11

Row | Variant | abundance fitness
97 | H24A | -0.266 ± 0.053
98 | H24I | -0.443 ± 0.061
99 | G30R | -0.428 ± 0.039
100 | S18F | -0.352 ± 0.057
101 | R27P | 0.219 ± 0.053
102 | C26I | -0.866 ± 0.13
103 | L60H | -0.293 ± 0.16
104 | K23R | -0.069 ± 0.036
105 | Y47D | 0 ± 0.092
106 | H25V | 0.044 ± 0.04
107 | K3N | -0.133 ± 0.052
108 | T8H | 0.025 ± 0.054
109 | R27Q | 0.112 ± 0.054
110 | R11Y | 0.121 ± 0.042
111 | K49E | -0.083 ± 0.053
112 | G30K | -1.17 ± 0.1
113 | R22H | -0.854 ± 0.14
114 | E16K | -0.387 ± 0.08
115 | S38Y | -0.633 ± 0.065
116 | K49Q | -0.192 ± 0.12
117 | P45E | -0.081 ± 0.074
118 | K49T | -0.212 ± 0.065
119 | V51I | -0.249 ± 0.073
120 | H31Y | -0.106 ± 0.062

Row | Variant | abundance fitness
121 | H58D | -0.495 ± 0.08
122 | E16P | -0.195 ± 0.055
123 | S20Q | 0.138 ± 0.047
124 | K49M | -0.298 ± 0.069
125 | S46P | 0.069 ± 0.07
126 | P48W | -0.484 ± 0.061
127 | C13G | -0.684 ± 0.064
128 | V53I | -0.385 ± 0.093
129 | H9K | -0.09 ± 0.046
130 | S56E | 0.331 ± 0.06
131 | F17E | -0.68 ± 0.065
132 | N35Q | 0.173 ± 0.058
133 | F17L | -0.218 ± 0.034
134 | T8Q | 0.008 ± 0.048
135 | C13I | -1.01 ± 0.28
136 | Y47L | -0.069 ± 0.044
137 | S38G | -0.067 ± 0.053
138 | V51T | 0.184 ± 0.057
139 | A7C | -0.082 ± 0.048
140 | K3G | -0.515 ± 0.051
141 | R27L | 0.069 ± 0.034
142 | C34Y | -0.682 ± 0.086
143 | I32C | -0.105 ± 0.059
144 | H9Q | -0.248 ± 0.061

Row | Variant | abundance fitness
145 | H31F | 0.027 ± 0.069
146 | C57Q | -0.409 ± 0.078
147 | C57P | -0.697 ± 0.071
148 | C10G | -0.849 ± 0.052
149 | E41K | -0.038 ± 0.059
150 | L60N | -0.126 ± 0.14
151 | K3P | -0.906 ± 0.11
152 | L44R | -0.445 ± 0.059
153 | R21G | -0.278 ± 0.047
154 | C29T | -0.818 ± 0.1
155 | C10T | -0.711 ± 0.072
156 | K49W | -0.327 ± 0.057
157 | E41R | -0.151 ± 0.042
158 | C10L | -0.74 ± 0.069
159 | H25E | -0.02 ± 0.052
160 | G30H | -0.428 ± 0.11
161 | E41C | -0.11 ± 0.065
162 | A43R | -0.054 ± 0.036
163 | C57S | -0.716 ± 0.06
164 | W1S | 0.121 ± 0.07
165 | C29K | -1.11 ± 0.23
166 | L60M | -0.194 ± 0.081
167 | T59I | -0.033 ± 0.059
